Source: US20150231232

Molecular target: human IL-8 (UniProt P10145)
Sequence (P10145 28-99): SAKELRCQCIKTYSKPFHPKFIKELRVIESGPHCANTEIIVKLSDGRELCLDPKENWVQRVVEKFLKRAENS

Question: “SpyCEP expressed in the lumen of E. coli OMVs (OMVs containing SpyCEP)” was tested. Which “hydrolysis of IL-8 (18% SDS-PAGE with silver staining)” value did it give?
Answer: IL-8 was almost completely cleaved after 2 hours incubation with 30 µg OMVs containing SpyCEP
